Legend:
[1] = molecular target: T1, YeeV fused to the GAL4 DNA binding domain (pGBD-C1) (E. coli), P64524; assay: two-hybrid; details: remark: other sources report otherwise
T1 chain: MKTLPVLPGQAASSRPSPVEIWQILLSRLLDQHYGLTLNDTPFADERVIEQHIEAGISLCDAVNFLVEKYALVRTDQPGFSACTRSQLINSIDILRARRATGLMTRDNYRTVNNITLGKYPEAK

[2] = molecular target: MreB fused to the GAL4 DNA binding domain (pGBD-C1) (E. coli), P0A9X4; assay: two-hybrid; details: remark: other sources report otherwise

B1: MreB fused to the GAL4 activation domain, P0A9X4 1-347 (natural protein)
chain: MLKKFRGMFSNDLSIDLGTANTLIYVKGQGIVLNEPSVVAIRQDRAGSPKSVAAVGHDAKQMLGRTPGNIAAIRPMKDGVIADFFVTEKMLQHFIKQVHSNSFMRPSPRVLVCVPVGATQVERRAIRESAQGAGAREVFLIEEPMAAAIGAGLPVSEATGSMVVDIGGGTTEVAVISLNGVVYSSSVRIGGDRFDEAIINYVRRNYGSLIGEATAERIKHEIGSAYPGDEVREIEVRGRNLAEGVPRGFTLNSNEILEALQEPLTGIVSAVMVALEQCPPELASDISERGMVLTGGGALLRNLDRLLMEETGIPVVVAEDPLTCVARGGGKALEMIDMHGGDLFSEE
B1 was tested, and the β-Galactosidase activity (Miller Units) [1] was 98 Miller Units.

B2: FtsZ fused to the GAL4 activation domain (pGAD-C1), P0A9A6 1-383 (natural protein)
chain: MFEPMELTNDAVIKVIGVGGGGGNAVEHMVRERIEGVEFFAVNTDAQALRKTAVGQTIQIGSGITKGLGAGANPEVGRNAADEDRDALRAALEGADMVFIAAGMGGGTGTGAAPVVAEVAKDLGILTVAVVTKPFNFEGKKRMAFAEQGITELSKHVDSLITIPNDKLLKVLGRGISLLDAFGAANDVLKGAVQGIAELITRPGLMNVDFADVRTVMSEMGYAMMGSGVASGEDRAEEAAEMAISSPLLEDIDLSGARGVLVNITAGFDLRLDEFETVGNTIRAFASDNATVVIGTSLDPDMNDELRVTVVATGIGMDKRPEITLVTNKQVQQPVMDRYQQHGMAPLTQEQKPVAKVVNDNAPQTAKEPDYLDIPAFLRKQAD
B2 gave a β-Galactosidase activity (Miller Units) [2] of 345 Miller Units.

From article PMC3021753
